Experimental findings from IntAct's records for PubMed 14532120 are described below.

B1: Interferon alpha/beta receptor 1 (Mus musculus), P33896 (parent)
chain: MLAVVGAAALVLVAGAPWVLPSAAGGENLKPPENIDVYIIDDNYTLKWSSHGESMGSVTFSAEYRTKDEAKWLKVPECQHTTTTKCEFSLLDTNVYIKTQFRVRAEEGNSTSSWNEVDPFIPFYTAHMSPPEVRLEAEDKAILVHISPPGQDGNMWALEKPSFSYTIRIWQKSSSDKKTINSTYYVEKIPELLPETTYCLEVKAIHPSLKKHSNYSTVQCISTTVANKMPVPGNLQVDAQGKSYVLKWDYIASADVLFRAQWLPGYSKSSSGSRSDKWKPIPTCANVQTTHCVFSQDTVYTGTFFLHVQASEGNHTSFWSEEKFIDSQKHILPPPPVITVTAMSDTLLVYVNCQDSTCDGLNYEIIFWENTSNTKISMEKDGPEFTLKNLQPLTVYCVQARVLFRALLNKTSNFSEKLCEKTRPGSFSTIWIITGLGVVFFSVMVLYALRSVWKYLCHVCFPPLKPPRSIDEFFSEPPSKNLVLLTAEEHTERCFIIENTDTVAVEVKHAPEEDLRKYSSQTSQDSGNYSNEEEESVGTESGQAVLSKAPCGGPCSVPSPPGTLEDGTCFLGNEKYLQSPALRTEPALLC
B2: Interferon alpha/beta receptor 1 (Homo sapiens), P17181 (parent)
chain: MMVVLLGATTLVLVAVAPWVLSAAAGGKNLKSPQKVEVDIIDDNFILRWNRSDESVGNVTFSFDYQKTGMDNWIKLSGCQNITSTKCNFSSLKLNVYEEIKLRIRAEKENTSSWYEVDSFTPFRKAQIGPPEVHLEAEDKAIVIHISPGTKDSVMWALDGLSFTYSLVIWKNSSGVEERIENIYSRHKIYKLSPETTYCLKVKAALLTSWKIGVYSPVHCIKTTVENELPPPENIEVSVQNQNYVLKWDYTYANMTFQVQWLHAFLKRNPGNHLYKWKQIPDCENVKTTQCVFPQNVFQKGIYLLRVQASDGNNTSFWSEEIKFDTEIQAFLLPPVFNIRSLSDSFHIYIGAPKQSGNTPVIQDYPLIYEIIFWENTSNAERKIIEKKTDVTVPNLKPLTVYCVKARAHTMDEKLNKSSVFSDAVCEKTKPGNTSKIWLIVGICIALFALPFVIYAAKVFLRCINYVFFPSLKPSSSIDEYFSEQPLKNLLLSTSEEQIEKCFIIENISTIATVEETNQTDEDHKKYSSQTSQDSGNYSNEDESESKTSEELQQDFV

Variants of B1 are the subject of the first test. The following applies: with fbw1b_human FBXW11, Q9UKB1.
Sequence of fbw1b_human FBXW11, Q9UKB1 (Q9UKB1 whole entry): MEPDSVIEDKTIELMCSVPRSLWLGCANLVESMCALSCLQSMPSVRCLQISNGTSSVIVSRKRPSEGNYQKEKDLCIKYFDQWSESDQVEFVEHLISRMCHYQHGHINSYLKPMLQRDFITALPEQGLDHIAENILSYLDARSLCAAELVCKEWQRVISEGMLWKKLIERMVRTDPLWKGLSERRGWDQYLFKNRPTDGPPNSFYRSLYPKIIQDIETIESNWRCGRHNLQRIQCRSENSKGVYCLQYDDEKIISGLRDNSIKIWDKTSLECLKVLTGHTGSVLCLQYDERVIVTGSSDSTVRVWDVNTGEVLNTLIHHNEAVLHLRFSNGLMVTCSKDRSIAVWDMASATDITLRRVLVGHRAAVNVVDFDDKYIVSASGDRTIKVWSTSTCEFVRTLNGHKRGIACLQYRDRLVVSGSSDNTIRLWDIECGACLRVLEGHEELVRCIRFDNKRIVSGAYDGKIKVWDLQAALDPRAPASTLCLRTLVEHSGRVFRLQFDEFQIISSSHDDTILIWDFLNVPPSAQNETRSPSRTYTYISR
Consider MLAVVGAAALVLVAGAPWVLPSAAGGENLKPPENIDVYIIDDNYTLKWSSHGESMGSVTFSAEYRTKDEAKWLKVPECQHTTTTKCEFSLLDTNVYIKTQFRVRAEEGNSTSSWNEVDPFIPFYTAHMSPPEVRLEAEDKAILVHISPPGQDGNMWALEKPSFSYTIRIWQKSSSDKKTINSTYYVEKIPELLPETTYCLEVKAIHPSLKKHSNYSTVQCISTTVANKMPVPGNLQVDAQGKSYVLKWDYIASADVLFRAQWLPGYSKSSSGSRSDKWKPIPTCANVQTTHCVFSQDTVYTGTFFLHVQASEGNHTSFWSEEKFIDSQKHILPPPPVITVTAMSDTLLVYVNCQDSTCDGLNYEIIFWENTSNTKISMEKDGPEFTLKNLQPLTVYCVQARVLFRALLNKTSNFSEKLCEKTRPGSFSTIWIITGLGVVFFSVMVLYALRSVWKYLCHVCFPPLKPPRSIDEFFSEPPSKNLVLLTAEEHTERCFIIENTDTVAVEVKHAPEEDLRKYSSQTSQDAGNYSNEEEESVGTESGQAVLSKAPCGGPCSVPSPPGTLEDGTCFLGNEKYLQSPALRTEPALLC [S526A], for which the “effect of a mutation on the interaction” value is on record as “disrupting interaction”.

A further test covers variants of B2. The following applies: with fbw1b_human FBXW11, Q9UKB1.
For the variant MMVVLLGATTLVLVAVAPWVLSAAAGGKNLKSPQKVEVDIIDDNFILRWNRSDESVGNVTFSFDYQKTGMDNWIKLSGCQNITSTKCNFSSLKLNVYEEIKLRIRAEKENTSSWYEVDSFTPFRKAQIGPPEVHLEAEDKAIVIHISPGTKDSVMWALDGLSFTYSLVIWKNSSGVEERIENIYSRHKIYKLSPETTYCLKVKAALLTSWKIGVYSPVHCIKTTVENELPPPENIEVSVQNQNYVLKWDYTYANMTFQVQWLHAFLKRNPGNHLYKWKQIPDCENVKTTQCVFPQNVFQKGIYLLRVQASDGNNTSFWSEEIKFDTEIQAFLLPPVFNIRSLSDSFHIYIGAPKQSGNTPVIQDYPLIYEIIFWENTSNAERKIIEKKTDVTVPNLKPLTVYCVKARAHTMDEKLNKSSVFSDAVCEKTKPGNTSKIWLIVGICIALFALPFVIYAAKVFLRCINYVFFPSLKPSSSIDEYFSEQPLKNLLLSTSEEQIEKCFIIENISTIATVEETNQTDEDHKKYSSQTSQDAGNYSNEDESESKTSEELQQDFV [S535A], the “effect of a mutation on the interaction” value was “disrupting interaction”.

Variants of B2 are the subject of the next test. The following applies: with fbw1b_human FBXW11, Q9UKB1. This is another data set of the same source.
As to MMVVLLGATTLVLVAVAPWVLSAAAGGKNLKSPQKVEVDIIDDNFILRWNRSDESVGNVTFSFDYQKTGMDNWIKLSGCQNITSTKCNFSSLKLNVYEEIKLRIRAEKENTSSWYEVDSFTPFRKAQIGPPEVHLEAEDKAIVIHISPGTKDSVMWALDGLSFTYSLVIWKNSSGVEERIENIYSRHKIYKLSPETTYCLKVKAALLTSWKIGVYSPVHCIKTTVENELPPPENIEVSVQNQNYVLKWDYTYANMTFQVQWLHAFLKRNPGNHLYKWKQIPDCENVKTTQCVFPQNVFQKGIYLLRVQASDGNNTSFWSEEIKFDTEIQAFLLPPVFNIRSLSDSFHIYIGAPKQSGNTPVIQDYPLIYEIIFWENTSNAERKIIEKKTDVTVPNLKPLTVYCVKARAHTMDEKLNKSSVFSDAVCEKTKPGNTSKIWLIVGICIALFALPFVIYAAKVFLRCINYVFFPSLKPSSSIDEYFSEQPLKNLLLSTSEEQIEKCFIIENISTIATVEETNQTDEDHKKYSSQTSQDAGNYSNEDESESKTSEELQQDFV [S535A], the “effect of a mutation on the interaction” value was “decreasing interaction”.
